# Assay results reported in US11965039B2, “Compstatin analogues and their medical uses” (priority 2018, dated 2024).
# Positions of bridges follow the written chain, without caps; N, C: chain ends. Non-standard residues stand in square brackets, D forms with d. Trp(1-Me) = Cn1cc(C[C@H](N)C(=O)O)c2ccccc21; 1Nal = N[C@@H](Cc1cccc2ccccc12)C(=O)O; 2Nal = N[C@@H](Cc1ccc2ccccc2c1)C(=O)O; Sar = CNCC(=O)O
# Target: Human C3 (Complement tech cat #A113c) (human, UniProt P01024 23-1663)
# Experiment: cell-based or functional assay
# Sequence of Human C3 (Complement tech cat #A113c) (P01024 23-1663 limits assumed): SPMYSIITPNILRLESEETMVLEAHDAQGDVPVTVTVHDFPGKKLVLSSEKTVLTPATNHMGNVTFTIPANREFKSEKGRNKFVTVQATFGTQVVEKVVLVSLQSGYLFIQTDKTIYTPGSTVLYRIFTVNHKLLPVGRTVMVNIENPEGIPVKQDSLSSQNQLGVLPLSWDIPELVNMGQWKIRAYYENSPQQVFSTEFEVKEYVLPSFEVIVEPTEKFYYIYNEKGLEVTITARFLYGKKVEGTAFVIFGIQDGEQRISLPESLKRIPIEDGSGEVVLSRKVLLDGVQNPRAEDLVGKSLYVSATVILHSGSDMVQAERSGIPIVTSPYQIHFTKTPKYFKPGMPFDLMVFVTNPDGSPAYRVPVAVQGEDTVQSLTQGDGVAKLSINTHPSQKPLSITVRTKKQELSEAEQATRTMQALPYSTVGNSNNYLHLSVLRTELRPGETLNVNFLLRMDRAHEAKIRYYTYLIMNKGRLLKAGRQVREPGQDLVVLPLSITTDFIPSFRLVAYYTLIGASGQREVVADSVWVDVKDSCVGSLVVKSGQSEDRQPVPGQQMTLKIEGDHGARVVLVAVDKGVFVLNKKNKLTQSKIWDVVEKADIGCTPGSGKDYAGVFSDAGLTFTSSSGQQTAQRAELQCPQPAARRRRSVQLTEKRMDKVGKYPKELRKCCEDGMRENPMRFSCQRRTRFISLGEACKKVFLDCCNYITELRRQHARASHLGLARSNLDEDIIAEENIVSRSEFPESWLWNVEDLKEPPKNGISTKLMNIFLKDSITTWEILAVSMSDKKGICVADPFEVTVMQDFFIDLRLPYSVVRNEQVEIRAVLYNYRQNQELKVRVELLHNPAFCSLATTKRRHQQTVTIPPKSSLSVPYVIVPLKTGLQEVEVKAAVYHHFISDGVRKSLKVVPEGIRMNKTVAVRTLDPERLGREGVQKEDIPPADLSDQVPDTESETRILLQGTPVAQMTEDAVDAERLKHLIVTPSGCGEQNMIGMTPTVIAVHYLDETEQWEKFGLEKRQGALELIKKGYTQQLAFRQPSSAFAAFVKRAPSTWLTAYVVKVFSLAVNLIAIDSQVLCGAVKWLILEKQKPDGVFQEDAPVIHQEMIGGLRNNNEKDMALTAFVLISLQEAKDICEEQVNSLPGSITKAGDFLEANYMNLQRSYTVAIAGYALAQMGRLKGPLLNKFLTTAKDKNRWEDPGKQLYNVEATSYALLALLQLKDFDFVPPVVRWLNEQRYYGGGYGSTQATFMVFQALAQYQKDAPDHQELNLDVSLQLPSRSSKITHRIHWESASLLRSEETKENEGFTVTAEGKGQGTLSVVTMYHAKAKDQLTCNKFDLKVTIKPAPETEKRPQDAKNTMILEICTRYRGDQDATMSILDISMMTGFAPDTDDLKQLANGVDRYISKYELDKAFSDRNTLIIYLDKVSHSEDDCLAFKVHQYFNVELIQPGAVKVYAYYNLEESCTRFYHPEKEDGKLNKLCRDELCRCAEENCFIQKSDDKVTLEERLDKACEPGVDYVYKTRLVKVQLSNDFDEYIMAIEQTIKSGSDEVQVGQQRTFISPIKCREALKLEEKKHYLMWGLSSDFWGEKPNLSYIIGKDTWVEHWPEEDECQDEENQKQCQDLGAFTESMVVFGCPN
row,Binder,inhibition of hemolysis IC50 [nM]
1,Ac-EGSAFCI[1Nal]QDWGEHRCTE-NH2 (disulfide 6-16; SMILES CC[C@H](C)[C@@H]1NC(=O)[C@@H](NC(=O)[C@H](Cc2ccccc2)NC(=O)[C@H](C)NC(=O)[C@H](CO)NC(=O)CNC(=O)[C@H](CCC(=O)O)NC(C)=O)CSSC[C@@H](C(=O)N[C@H](C(=O)N[C@@H](CCC(=O)O)C(N)=O)[C@@H](C)O)NC(=O)[C@H](CCCNC(=N)N)NC(=O)[C@H](Cc2c[nH]cn2)NC(=O)[C@H](CCC(=O)O)NC(=O)CNC(=O)[C@H](Cc2c[nH]c3ccccc23)NC(=O)[C@H](CC(=O)O)NC(=O)[C@H](CCC(N)=O)NC(=O)[C@H](Cc2cccc3ccccc23)NC1=O) [Compound 56],< 100
2,Ac-EGSAFCI[Trp(1-Me)]QDWGEHRCEGE-NH2 (disulfide 6-16; SMILES CC[C@H](C)[C@@H]1NC(=O)[C@@H](NC(=O)[C@H](Cc2ccccc2)NC(=O)[C@H](C)NC(=O)[C@H](CO)NC(=O)CNC(=O)[C@H](CCC(=O)O)NC(C)=O)CSSC[C@@H](C(=O)N[C@@H](CCC(=O)O)C(=O)NCC(=O)N[C@@H](CCC(=O)O)C(N)=O)NC(=O)[C@H](CCCNC(=N)N)NC(=O)[C@H](Cc2c[nH]cn2)NC(=O)[C@H](CCC(=O)O)NC(=O)CNC(=O)[C@H](Cc2c[nH]c3ccccc23)NC(=O)[C@H](CC(=O)O)NC(=O)[C@H](CCC(N)=O)NC(=O)[C@H](Cc2cn(C)c3ccccc23)NC1=O) [Compound 58],< 100
3,Ac-SAICIWQDWGEHRCTEG-NH2 (disulfide 4-14; SMILES CC[C@H](C)[C@H](NC(=O)[C@H](C)NC(=O)[C@H](CO)NC(C)=O)C(=O)N[C@H]1CSSC[C@@H](C(=O)N[C@H](C(=O)N[C@@H](CCC(=O)O)C(=O)NCC(N)=O)[C@@H](C)O)NC(=O)[C@H](CCCNC(=N)N)NC(=O)[C@H](Cc2c[nH]cn2)NC(=O)[C@H](CCC(=O)O)NC(=O)CNC(=O)[C@H](Cc2c[nH]c3ccccc23)NC(=O)[C@H](CC(=O)O)NC(=O)[C@H](CCC(N)=O)NC(=O)[C@H](Cc2c[nH]c3ccccc23)NC(=O)[C@H]([C@@H](C)CC)NC1=O) [Compound 42],< 250
4,Ac-EGSAYCI[Trp(1-Me)]QDWGEHRCTE-NH2 (disulfide 6-16; SMILES CC[C@H](C)[C@@H]1NC(=O)[C@@H](NC(=O)[C@H](Cc2ccc(O)cc2)NC(=O)[C@H](C)NC(=O)[C@H](CO)NC(=O)CNC(=O)[C@H](CCC(=O)O)NC(C)=O)CSSC[C@@H](C(=O)N[C@H](C(=O)N[C@@H](CCC(=O)O)C(N)=O)[C@@H](C)O)NC(=O)[C@H](CCCNC(=N)N)NC(=O)[C@H](Cc2c[nH]cn2)NC(=O)[C@H](CCC(=O)O)NC(=O)CNC(=O)[C@H](Cc2c[nH]c3ccccc23)NC(=O)[C@H](CC(=O)O)NC(=O)[C@H](CCC(N)=O)NC(=O)[C@H](Cc2cn(C)c3ccccc23)NC1=O) [Compound 59],< 100
5,Ac-EGSAFCI[2Nal]QDWGEHRCTE-NH2 (disulfide 6-16; SMILES CC[C@H](C)[C@@H]1NC(=O)[C@@H](NC(=O)[C@H](Cc2ccccc2)NC(=O)[C@H](C)NC(=O)[C@H](CO)NC(=O)CNC(=O)[C@H](CCC(=O)O)NC(C)=O)CSSC[C@@H](C(=O)N[C@H](C(=O)N[C@@H](CCC(=O)O)C(N)=O)[C@@H](C)O)NC(=O)[C@H](CCCNC(=N)N)NC(=O)[C@H](Cc2c[nH]cn2)NC(=O)[C@H](CCC(=O)O)NC(=O)CNC(=O)[C@H](Cc2c[nH]c3ccccc23)NC(=O)[C@H](CC(=O)O)NC(=O)[C@H](CCC(N)=O)NC(=O)[C@H](Cc2ccc3ccccc3c2)NC1=O) [Compound 60],< 100
6,Ac-EGSAFCIWQDWGEHRC[Sar]E-NH2 (disulfide 6-16; SMILES CC[C@H](C)[C@@H]1NC(=O)[C@@H](NC(=O)[C@H](Cc2ccccc2)NC(=O)[C@H](C)NC(=O)[C@H](CO)NC(=O)CNC(=O)[C@H](CCC(=O)O)NC(C)=O)CSSC[C@@H](C(=O)N(C)CC(=O)N[C@@H](CCC(=O)O)C(N)=O)NC(=O)[C@H](CCCNC(=N)N)NC(=O)[C@H](Cc2c[nH]cn2)NC(=O)[C@H](CCC(=O)O)NC(=O)CNC(=O)[C@H](Cc2c[nH]c3ccccc23)NC(=O)[C@H](CC(=O)O)NC(=O)[C@H](CCC(N)=O)NC(=O)[C@H](Cc2c[nH]c3ccccc23)NC1=O) [Compound 45],< 100
7,Ac-EGSAICIWQDWGEHRC[Sar]EGE-NH2 (disulfide 6-16; SMILES CC[C@H](C)[C@H](NC(=O)[C@H](C)NC(=O)[C@H](CO)NC(=O)CNC(=O)[C@H](CCC(=O)O)NC(C)=O)C(=O)N[C@H]1CSSC[C@@H](C(=O)N(C)CC(=O)N[C@@H](CCC(=O)O)C(=O)NCC(=O)N[C@@H](CCC(=O)O)C(N)=O)NC(=O)[C@H](CCCNC(=N)N)NC(=O)[C@H](Cc2c[nH]cn2)NC(=O)[C@H](CCC(=O)O)NC(=O)CNC(=O)[C@H](Cc2c[nH]c3ccccc23)NC(=O)[C@H](CC(=O)O)NC(=O)[C@H](CCC(N)=O)NC(=O)[C@H](Cc2c[nH]c3ccccc23)NC(=O)[C@H]([C@@H](C)CC)NC1=O) [Compound 44],< 250
8,Ac-ICI[2Nal]QDWGEHRCTGAES-NH2 (disulfide 2-12; SMILES CC[C@H](C)[C@H](NC(C)=O)C(=O)N[C@H]1CSSC[C@@H](C(=O)N[C@H](C(=O)NCC(=O)N[C@@H](C)C(=O)N[C@@H](CCC(=O)O)C(=O)N[C@@H](CO)C(N)=O)[C@@H](C)O)NC(=O)[C@H](CCCNC(=N)N)NC(=O)[C@H](Cc2c[nH]cn2)NC(=O)[C@H](CCC(=O)O)NC(=O)CNC(=O)[C@H](Cc2c[nH]c3ccccc23)NC(=O)[C@H](CC(=O)O)NC(=O)[C@H](CCC(N)=O)NC(=O)[C@H](Cc2ccc3ccccc3c2)NC(=O)[C@H]([C@@H](C)CC)NC1=O) [Compound 52],< 100
9,Ac-ESSAICIWQDWGAHRCT-NH2 (disulfide 6-16; SMILES CC[C@H](C)[C@H](NC(=O)[C@H](C)NC(=O)[C@H](CO)NC(=O)[C@H](CO)NC(=O)[C@H](CCC(=O)O)NC(C)=O)C(=O)N[C@H]1CSSC[C@@H](C(=O)N[C@H](C(N)=O)[C@@H](C)O)NC(=O)[C@H](CCCNC(=N)N)NC(=O)[C@H](Cc2c[nH]cn2)NC(=O)[C@H](C)NC(=O)CNC(=O)[C@H](Cc2c[nH]c3ccccc23)NC(=O)[C@H](CC(=O)O)NC(=O)[C@H](CCC(N)=O)NC(=O)[C@H](Cc2c[nH]c3ccccc23)NC(=O)[C@H]([C@@H](C)CC)NC1=O) [Compound 46],< 100
10,Ac-ICI[Trp(1-Me)]QDWGEHRCTGAES-NH2 (disulfide 2-12; SMILES CC[C@H](C)[C@H](NC(C)=O)C(=O)N[C@H]1CSSC[C@@H](C(=O)N[C@H](C(=O)NCC(=O)N[C@@H](C)C(=O)N[C@@H](CCC(=O)O)C(=O)N[C@@H](CO)C(N)=O)[C@@H](C)O)NC(=O)[C@H](CCCNC(=N)N)NC(=O)[C@H](Cc2c[nH]cn2)NC(=O)[C@H](CCC(=O)O)NC(=O)CNC(=O)[C@H](Cc2c[nH]c3ccccc23)NC(=O)[C@H](CC(=O)O)NC(=O)[C@H](CCC(N)=O)NC(=O)[C@H](Cc2cn(C)c3ccccc23)NC(=O)[C@H]([C@@H](C)CC)NC1=O) [Compound 51],< 100
11,Ac-ICIWQDWGAHRCTGAES-NH2 (disulfide 2-12; SMILES CC[C@H](C)[C@H](NC(C)=O)C(=O)N[C@H]1CSSC[C@@H](C(=O)N[C@H](C(=O)NCC(=O)N[C@@H](C)C(=O)N[C@@H](CCC(=O)O)C(=O)N[C@@H](CO)C(N)=O)[C@@H](C)O)NC(=O)[C@H](CCCNC(=N)N)NC(=O)[C@H](Cc2c[nH]cn2)NC(=O)[C@H](C)NC(=O)CNC(=O)[C@H](Cc2c[nH]c3ccccc23)NC(=O)[C@H](CC(=O)O)NC(=O)[C@H](CCC(N)=O)NC(=O)[C@H](Cc2c[nH]c3ccccc23)NC(=O)[C@H]([C@@H](C)CC)NC1=O) [Compound 47],< 100
12,Ac-EGSAFCI[Trp(1-Me)]QDWGEHRCTE-NH2 (disulfide 6-16; SMILES CC[C@H](C)[C@@H]1NC(=O)[C@@H](NC(=O)[C@H](Cc2ccccc2)NC(=O)[C@H](C)NC(=O)[C@H](CO)NC(=O)CNC(=O)[C@H](CCC(=O)O)NC(C)=O)CSSC[C@@H](C(=O)N[C@H](C(=O)N[C@@H](CCC(=O)O)C(N)=O)[C@@H](C)O)NC(=O)[C@H](CCCNC(=N)N)NC(=O)[C@H](Cc2c[nH]cn2)NC(=O)[C@H](CCC(=O)O)NC(=O)CNC(=O)[C@H](Cc2c[nH]c3ccccc23)NC(=O)[C@H](CC(=O)O)NC(=O)[C@H](CCC(N)=O)NC(=O)[C@H](Cc2cn(C)c3ccccc23)NC1=O) [Compound 57],< 100
13,Ac-EGSAICIWQDWGEHRCTE-NH2 (disulfide 6-16; SMILES CC[C@H](C)[C@H](NC(=O)[C@H](C)NC(=O)[C@H](CO)NC(=O)CNC(=O)[C@H](CCC(=O)O)NC(C)=O)C(=O)N[C@H]1CSSC[C@@H](C(=O)N[C@H](C(=O)N[C@@H](CCC(=O)O)C(N)=O)[C@@H](C)O)NC(=O)[C@H](CCCNC(=N)N)NC(=O)[C@H](Cc2c[nH]cn2)NC(=O)[C@H](CCC(=O)O)NC(=O)CNC(=O)[C@H](Cc2c[nH]c3ccccc23)NC(=O)[C@H](CC(=O)O)NC(=O)[C@H](CCC(N)=O)NC(=O)[C@H](Cc2c[nH]c3ccccc23)NC(=O)[C@H]([C@@H](C)CC)NC1=O) [Compound 55],< 250
